Results taken from paper PMC6194676, “Blood-brain barrier-associated pericytes internalize and clear aggregated amyloid-β42 by LRP1-dependent apolipoprotein E isoform-specific mechanism” (Molecular Neurodegeneration, 2018).

Key:
CD13+ pericytes = assay: Cy3-Aβ42 uptake by pericytes on freshly isolated mouse brain cortical slices; format: cell-based; conditions: Cy3-Aβ42 1 μM
Procedure: Brain slices were prepared from 2-month old C57BL6 mice or Lrp^lox/lox;Cspg4-Cre mice. Following the urethane anesthesia, brains were quickly removed from the cranial cavity and sectioned with McIlwain tissue chopper (Ted Pella, Inc., Redding, CA, USA) into 200 μm thick slices containing cortex and hippocampus, as previously described. Slices were recovered for 30 min in a submersion chamber filled with the per-warmed (at 37 °C) artificial cerebrospinal fluid (aCSF; 126 mM NaCl, 2.5 mM KCl, 1.25 mM Na2PO4, 26 mM NaHCO3, 1 mM MgCl2, 2 mM CaCl2, 0.5 mM ascorbic acid, 2 mM sodium pyrurate, and 10 mM glucose, saturated with 95% O2 and 5% CO2). […] (anti-LRP1 N20, 50 μg/ml; Santa Cruz Biotech., Santa Cruz, CA, USA) for 20 min at 37 °C. At the end of the experiment, brain slices were washed with phosphate buffer saline (PBS) and fixed with 4% PFA for 30 min. The same immunostaining procedure as for human brain tissue without antigen retrieval was performed on mouse brain slices. Primary antibodies included goat anti-mouse aminopeptidase N (CD13) (1:100, R&D Systems), and goat anti-mouse PDGFRβ (1:100, R&D Systems). Secondary antibodies were: Alexa 488-conjugated donkey anti-goat (1:200, Invitrogen). Images were obtained with Zeiss 510 confocal microscopy (Carl Zeiss MicroImaging Inc.) with lasers and band-pass filter settings as described above. […]

[1] = test system: primary mouse brain pericytes; assay: Clearance of aggregated Cy3-Aβ42 from multi-spot glass slides by primary mouse brain pericytes; format: cell-based; conditions: 5 days of culture, 1 μg Cy3-Aβ42 per spot, 5,000 cells per spot; anti-LRP1 50 μg/ml, RAP 500 nM, or si.Lrp1; compared to cell-free control; N = 4 independent cultures, mean
Description: Brain capillaries were isolated from mouse cortices pooled from 3 to 4 mouse brains for each biological replicate. In experiments in Figs. 4 and 5, we used 3–4 independent biological replicates (cultures), as indicated in the legends to these respective figures. Capillaries were isolated as we have described previously. In brief, mouse cortices were macroscopically dissected, and all visible white matter was discarded in ice-cold PBS containing 2% fetal bovine serum (FBS). The brain was homogenized in PBS containing 2% FBS and centrifuged at 6,000 g for 15 min after addition of Dextran (70 kDa, Sigma). The capillary pellet was collected and sequentially filtered through a 45 μm cell strainer (BD Falcon). […]
The multi-spot glass slides (Thermo Scientific, 9991090, Waltham, MA, USA) were coated with Cy3- Aβ42 [29, 51] at 1 μg per spot without cells or with brain capillary pericytes treated with non-immune IgG (NI-IgG) or LRP1-specific blocking antibody (anti-LRP1; 50 μg/ml) or) or apoE-specific blocking antibody (anti-apoE, HJ6.3, 50 μg/ml), scrambled siRNA (si.Control) or LRP1 siRNA (si.Lrp1) (Dharmacon, E-040764-00-0010) or apoE siRNA (si.Apoe) (Dharmacon, E-040885-00-0005), and 500 nM receptor-associated protein (RAP) (EMD Bioscience), lipidated apoE3 (40 nM) or apoE4 (40 nM). […] The Cy3-Aβ42 relative intensity was analyzed with the NIH Image J software. […]

Molecule	Uptake of Cy3-Aβ42 by pericytes, time course (CD13+ pericytes; 30 min vs 2 h)	Cy3-Aβ42 cleared by pericytes [1]	Cy3-Aβ42+ area occupying CD13+ pericyte profiles (CD13+ pericytes; 2 h, in the presence of the LRP1 inhibitor (anti-LRP1 50 μg/ml), confocal microscopy, N = 4 independent cultures, mean)
Cy3-Aβ42: Human Cy3-labelled amyloid-β42; preparation contained monomers, dimers, trimers, tetramers and small molecular weight oligomers [reference compound]	rapid and time-dependent	–	–
RAP: Receptor associated protein, an LRP1 antagonist which inhibits ligand binding to LRP1 (protein, UniProt P30533 35-357, looked up) Alpha-2-macroglobulin …: YSREKNQPKPSPKRESGEEFRMEKLNQLWEKAQRLHLPPVRLAELHADLKIQERDELAWKKLKLDGLDEDGEKEARLIRNLNVILAKYGLDGKKDARQVTSNSLSGTQEDGLDDPRLEKLWHKAKTSGKFSGEELDKLWREFLHHKEKVHEYNVLLETLSRTEEIHENVISPSDLSDIKGSVLHSRHTELKEKLRSINQGLDRLRRVSHQGYSTEAEFEEPRVIDLWDLAQSANLTDKELEAFREELKHFEAKIEKHNHYQKQLEIAHEKLRHAESVGDGERVSRSREKHALLEGRTKELGYTVKKHLQDLSGRISRARHNEL	–	27.3%	21.7%
